Experimental findings from PMC8934648, “The MukB-topoisomerase IV interaction mutually suppresses their catalytic activities” (Nucleic Acids Research, 2021) are described below.

Series [1] has as its target T1, MukB (E. coli, UniProt P22523 1-1486).
T1 construct: MukB, SMC-like condensin of Escherichia coli; also called condensin MukB; wild-type MukB
T1 sequence (looked up): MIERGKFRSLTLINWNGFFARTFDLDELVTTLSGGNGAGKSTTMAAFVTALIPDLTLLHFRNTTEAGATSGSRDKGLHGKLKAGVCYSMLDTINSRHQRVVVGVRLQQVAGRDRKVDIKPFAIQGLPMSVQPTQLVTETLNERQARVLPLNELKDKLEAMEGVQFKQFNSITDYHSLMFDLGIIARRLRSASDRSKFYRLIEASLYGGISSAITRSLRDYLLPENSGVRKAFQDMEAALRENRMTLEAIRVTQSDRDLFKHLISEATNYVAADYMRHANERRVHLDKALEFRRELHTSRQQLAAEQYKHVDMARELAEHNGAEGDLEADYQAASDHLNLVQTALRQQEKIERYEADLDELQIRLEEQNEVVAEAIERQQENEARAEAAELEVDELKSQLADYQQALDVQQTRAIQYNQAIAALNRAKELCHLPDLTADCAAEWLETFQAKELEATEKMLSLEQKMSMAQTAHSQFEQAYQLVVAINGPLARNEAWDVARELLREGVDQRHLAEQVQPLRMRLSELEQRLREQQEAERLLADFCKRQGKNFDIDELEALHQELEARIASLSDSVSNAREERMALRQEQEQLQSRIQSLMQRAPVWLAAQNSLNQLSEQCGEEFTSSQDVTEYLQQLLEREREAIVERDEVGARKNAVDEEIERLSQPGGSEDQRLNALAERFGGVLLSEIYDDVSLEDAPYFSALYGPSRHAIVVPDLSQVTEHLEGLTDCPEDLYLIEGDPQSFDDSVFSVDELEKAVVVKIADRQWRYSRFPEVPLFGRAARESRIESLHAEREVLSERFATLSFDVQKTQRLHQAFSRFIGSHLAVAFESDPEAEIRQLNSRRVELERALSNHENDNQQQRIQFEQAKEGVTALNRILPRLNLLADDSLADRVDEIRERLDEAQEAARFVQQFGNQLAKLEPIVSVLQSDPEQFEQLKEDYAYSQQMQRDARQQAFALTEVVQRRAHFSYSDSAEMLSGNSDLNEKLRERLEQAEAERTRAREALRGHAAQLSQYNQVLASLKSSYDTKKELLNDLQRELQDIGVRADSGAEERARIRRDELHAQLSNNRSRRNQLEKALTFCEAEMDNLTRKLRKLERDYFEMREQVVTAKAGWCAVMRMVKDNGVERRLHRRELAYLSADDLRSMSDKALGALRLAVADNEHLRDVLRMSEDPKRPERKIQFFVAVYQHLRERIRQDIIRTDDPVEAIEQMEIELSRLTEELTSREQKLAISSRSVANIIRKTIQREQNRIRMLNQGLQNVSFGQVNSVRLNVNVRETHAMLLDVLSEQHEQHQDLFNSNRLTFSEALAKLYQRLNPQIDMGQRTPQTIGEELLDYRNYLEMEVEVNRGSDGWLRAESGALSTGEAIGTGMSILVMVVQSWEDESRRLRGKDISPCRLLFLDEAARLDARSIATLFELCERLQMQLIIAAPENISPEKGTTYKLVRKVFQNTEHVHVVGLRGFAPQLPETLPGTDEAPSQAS
The series can be described thus: pull-down; MukB (125 nM) held on Dynabeads Protein A through affinity-purified MukB polyclonal antibodies; varying ParC; 50 mM HEPES-KOH pH 7.5, 50 mM KCl, 0.5 mM Mg(OAc)2, 7.5% glycerol, 0.05% IGEPAL, 15 min at 37°C; bound protein read from SDS-PAGE bands; fit to the Hill equation; KD dimer to dimer. As to conditions: both partners purified.

Another series deals with T2, MukBtriple (MukB3X) (Escherichia coli, UniProt P22523 1-1486, D697K;D745K;E753K).
T2 sequence: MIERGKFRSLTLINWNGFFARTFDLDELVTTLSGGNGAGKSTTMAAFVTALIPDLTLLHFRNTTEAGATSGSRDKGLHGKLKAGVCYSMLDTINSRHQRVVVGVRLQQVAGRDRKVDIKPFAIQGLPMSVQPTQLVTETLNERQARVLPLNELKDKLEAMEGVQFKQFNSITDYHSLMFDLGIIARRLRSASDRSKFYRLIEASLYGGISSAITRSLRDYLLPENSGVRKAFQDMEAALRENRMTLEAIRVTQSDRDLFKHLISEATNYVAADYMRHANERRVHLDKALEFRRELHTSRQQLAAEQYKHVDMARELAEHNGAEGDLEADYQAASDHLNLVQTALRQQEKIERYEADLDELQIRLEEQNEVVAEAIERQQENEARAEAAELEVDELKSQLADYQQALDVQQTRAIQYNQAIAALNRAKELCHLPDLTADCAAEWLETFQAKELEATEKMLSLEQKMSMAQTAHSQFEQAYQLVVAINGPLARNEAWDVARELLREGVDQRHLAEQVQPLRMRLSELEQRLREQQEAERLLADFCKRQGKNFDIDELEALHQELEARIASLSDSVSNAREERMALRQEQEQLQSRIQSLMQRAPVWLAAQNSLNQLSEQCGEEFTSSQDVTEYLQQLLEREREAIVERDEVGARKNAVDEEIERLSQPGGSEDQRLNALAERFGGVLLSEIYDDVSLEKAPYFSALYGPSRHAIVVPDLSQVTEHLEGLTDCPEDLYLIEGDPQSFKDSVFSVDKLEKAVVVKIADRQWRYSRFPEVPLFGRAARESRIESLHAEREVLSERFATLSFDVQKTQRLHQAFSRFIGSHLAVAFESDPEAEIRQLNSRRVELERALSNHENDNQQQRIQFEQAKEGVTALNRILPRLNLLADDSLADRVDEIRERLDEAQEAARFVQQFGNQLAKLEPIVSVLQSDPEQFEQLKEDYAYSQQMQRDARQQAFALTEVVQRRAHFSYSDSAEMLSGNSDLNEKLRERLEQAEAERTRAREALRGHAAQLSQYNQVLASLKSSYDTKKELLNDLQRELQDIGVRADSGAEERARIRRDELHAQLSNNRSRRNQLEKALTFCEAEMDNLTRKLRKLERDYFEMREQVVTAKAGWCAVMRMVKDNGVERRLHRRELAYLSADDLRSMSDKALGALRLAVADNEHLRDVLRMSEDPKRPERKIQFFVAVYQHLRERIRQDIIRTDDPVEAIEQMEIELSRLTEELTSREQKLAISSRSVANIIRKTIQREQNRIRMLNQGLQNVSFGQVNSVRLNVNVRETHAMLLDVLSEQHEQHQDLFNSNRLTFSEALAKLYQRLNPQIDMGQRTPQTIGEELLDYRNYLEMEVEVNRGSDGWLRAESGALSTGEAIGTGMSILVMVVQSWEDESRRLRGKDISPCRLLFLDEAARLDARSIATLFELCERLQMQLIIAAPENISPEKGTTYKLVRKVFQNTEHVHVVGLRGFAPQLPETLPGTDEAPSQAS
The series can be described thus: DNA binding assay (method not stated in material); 0.5 mM Mg(OAc)2; apparent Kd; 50 mer binding: 50 mM HEPES-KOH pH 7.5, 10 mM DTT, 20 mM KCl, 0.5 mM Mg(OAc)2, 5 nM DNA; pull-down: same buffer plus 7.5% glycerol, 0.05% NP-40, loading at room temperature, assay at 37 C. Particulars: protein: recombinant; chain copies: 2; label: 5'-32P; blunt.

For series [2], the target named is T3, MukB (Escherichia coli, UniProt P22523 1-1486).
T3 sequence: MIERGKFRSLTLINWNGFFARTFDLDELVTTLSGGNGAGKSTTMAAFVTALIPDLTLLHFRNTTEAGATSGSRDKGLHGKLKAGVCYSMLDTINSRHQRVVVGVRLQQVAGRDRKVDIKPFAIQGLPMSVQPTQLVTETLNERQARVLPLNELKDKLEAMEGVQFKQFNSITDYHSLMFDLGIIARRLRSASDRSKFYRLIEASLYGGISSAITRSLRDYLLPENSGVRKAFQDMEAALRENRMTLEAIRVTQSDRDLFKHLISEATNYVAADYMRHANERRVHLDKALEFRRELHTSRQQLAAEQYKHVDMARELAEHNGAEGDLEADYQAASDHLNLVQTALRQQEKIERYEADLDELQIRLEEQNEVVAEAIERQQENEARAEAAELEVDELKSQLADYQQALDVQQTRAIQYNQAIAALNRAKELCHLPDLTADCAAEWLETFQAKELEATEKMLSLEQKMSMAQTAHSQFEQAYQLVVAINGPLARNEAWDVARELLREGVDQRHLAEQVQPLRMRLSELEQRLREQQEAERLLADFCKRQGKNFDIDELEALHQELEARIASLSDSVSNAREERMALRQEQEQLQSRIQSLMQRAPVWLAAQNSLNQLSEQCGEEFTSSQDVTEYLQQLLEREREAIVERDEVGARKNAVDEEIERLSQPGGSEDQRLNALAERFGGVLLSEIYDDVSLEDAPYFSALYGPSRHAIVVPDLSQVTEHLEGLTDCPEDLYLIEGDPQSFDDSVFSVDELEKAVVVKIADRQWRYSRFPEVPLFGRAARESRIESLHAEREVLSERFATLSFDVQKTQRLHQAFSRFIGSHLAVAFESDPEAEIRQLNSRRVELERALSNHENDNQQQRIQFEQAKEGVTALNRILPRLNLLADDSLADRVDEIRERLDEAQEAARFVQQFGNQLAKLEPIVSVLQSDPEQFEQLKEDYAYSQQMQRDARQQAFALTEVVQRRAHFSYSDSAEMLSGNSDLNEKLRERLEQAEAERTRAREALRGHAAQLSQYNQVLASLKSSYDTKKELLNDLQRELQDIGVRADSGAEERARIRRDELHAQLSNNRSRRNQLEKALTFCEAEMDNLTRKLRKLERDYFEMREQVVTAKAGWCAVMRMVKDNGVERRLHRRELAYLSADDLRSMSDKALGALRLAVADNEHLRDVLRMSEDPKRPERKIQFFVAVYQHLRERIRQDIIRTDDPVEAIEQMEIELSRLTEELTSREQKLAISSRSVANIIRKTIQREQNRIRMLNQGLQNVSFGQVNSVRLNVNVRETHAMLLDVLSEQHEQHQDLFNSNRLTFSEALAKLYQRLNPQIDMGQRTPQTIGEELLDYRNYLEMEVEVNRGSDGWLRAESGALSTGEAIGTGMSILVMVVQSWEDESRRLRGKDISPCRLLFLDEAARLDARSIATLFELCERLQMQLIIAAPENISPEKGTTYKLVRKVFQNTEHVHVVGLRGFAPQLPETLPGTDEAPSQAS
Described as above. Particulars: protein: recombinant; chain copies: 2; label: 5'-32P; blunt.

B1: ParC subunit of topoisomerase IV (natural protein, E. coli, UniProt P0AFI2 1-752, looked up)
chain: MSDMAERLALHEFTENAYLNYSMYVIMDRALPFIGDGLKPVQRRIVYAMSELGLNASAKFKKSARTVGDVLGKYHPHGDSACYEAMVLMAQPFSYRYPLVDGQGNWGAPDDPKSFAAMRYTESRLSKYSELLLSELGQGTADWVPNFDGTLQEPKMLPARLPNILLNGTTGIAVGMATDIPPHNLREVAQAAIALIDQPKTTLDQLLDIVQGPDYPTEAEIITSRAEIRKIYENGRGSVRMRAVWKKEDGAVVISALPHQVSGARVLEQIAAQMRNKKLPMVDDLRDESDHENPTRLVIVPRSNRVDMDQVMNHLFATTDLEKSYRINLNMIGLDGRPAVKNLLEILSEWLVFRRDTVRRRLNYRLEKVLKRLHILEGLLVAFLNIDEVIEIIRNEDEPKPALMSRFGLTETQAEAILELKLRHLAKLEEMKIRGEQSELEKERDQLQGILASERKMNNLLKKELQADAQAYGDDRRSPLQEREEAKAMSEHDMLPSEPVTIVLSQMGWVRSAKGHDIDAPGLNYKAGDSFKAAVKGKSNQPVVFVDSTGRSYAIDPITLPSARGQGEPLTGKLTLPPGATVDHMLMESDDQKLLMASDAGYGFVCTFNDLVARNRAGKALITLPENAHVMPPVVIEDASDMLLAITQAGRMLMFPVSDLPQLSKGKGNKIINIPSAEAARGEDGLAQLYVLPPQSTLTIHVGKRKIKLRPEELQKVTGERGRRGTLMRGLQRIDRVEIDSPRRASSGDSEE
notes: ParC, breakage and reunion subunit of topoisomerase IV of Escherichia coli; also called wild-type ParC; Cwt
B1: in the series with MukB [1], the Kd came to 115 nM.

B2: 50mer duplex DNA (dsDNA)
DNA 1: ATCTCGGGCTATTCTTTTGATTTATAAGGGATTTTGCCGATTTCGGAACC
DNA 2: GGTTCCGAAATCGGCAAAATCCCTTATAAATCAAAAGAATAGCCCGAGAT
Take B2: the Kd with MukBtriple (MukB3X) came to 30 nM; with MukB [2], 120 nM.
